Results: IntAct's records for PubMed 17435768

B1: Heterogeneous nuclear ribonucleoprotein A1 (Homo sapiens), P09651-2 (parent)
chain: MSKSESPKEPEQLRKLFIGGLSFETTDESLRSHFEQWGTLTDCVVMRDPNTKRSRGFGFVTYATVEEVDAAMNARPHKVDGRVVEPKRAVSREDSQRPGAHLTVKKIFVGGIKEDTEEHHLRDYFEQYGKIEVIEIMTDRGSGKKRGFAFVTFDDHDSVDKIVIQKYHTVNGHNCEVRKALSKQEMASASSSQRGRSGSGNFGGGRGGGFGGNDNFGRGGNFSGRGGFGGSRGGGGYGGSGDGYNGFGNDGSNFGGGGSYNDFGNYNNQSSNFGPMKGGNFGGRSSGPYGGGGQYFAKPRNQGGYGGSSSSSSYGSGRRF
B2: Heterogeneous nuclear ribonucleoprotein M (Homo sapiens), P52272 (parent)
chain: MAAGVEAAAEVAATEIKMEEESGAPGVPSGNGAPGPKGEGERPAQNEKRKEKNIKRGGNRFEPYANPTKRYRAFITNIPFDVKWQSLKDLVKEKVGEVTYVELLMDAEGKSRGCAVVEFKMEESMKKAAEVLNKHSLSGRPLKVKEDPDGEHARRAMQKVMATTGGMGMGPGGPGMITIPPSILNNPNIPNEIIHALQAGRLGSTVFVANLDYKVGWKKLKEVFSMAGVVVRADILEDKDGKSRGIGTVTFEQSIEAVQAISMFNGQLLFDRPMHVKMDERALPKGDFFPPERPQQLPHGLGGIGMGLGPGGQPIDANHLNKGIGMGNIGPAGMGMEGIGFGINKMGGMEGPFGGGMENMGRFGSGMNMGRINEILSNALKRGEIIAKQGGGGGGGSVPGIERMGPGIDRLGGAGMERMGAGLGHGMDRVGSEIERMGLVMDRMGSVERMGSGIERMGPLGLDHMASSIERMGQTMERIGSGVERMGAGMGFGLERMAAPIDRVGQTIERMGSGVERMGPAIERMGLSMERMVPAGMGAGLERMGPVMDRMATGLERMGANNLERMGLERMGANSLERMGLERMGANSLERMGPAMGPALGAGIERMGLAMGGGGGASFDRAIEMERGNFGGSFAGSFGGAGGHAPGVARKACQIFVRNLPFDFTWKMLKDKFNECGHVLYADIKMENGKSKGCGVVKFESPEVAERACRMMNGMKLSGREIDVRIDRNA

Variants of: B1
Conditions: with tnpo1_human TNPO1, Q92973
tnpo1_human TNPO1, Q92973, sequence (Q92973 whole entry): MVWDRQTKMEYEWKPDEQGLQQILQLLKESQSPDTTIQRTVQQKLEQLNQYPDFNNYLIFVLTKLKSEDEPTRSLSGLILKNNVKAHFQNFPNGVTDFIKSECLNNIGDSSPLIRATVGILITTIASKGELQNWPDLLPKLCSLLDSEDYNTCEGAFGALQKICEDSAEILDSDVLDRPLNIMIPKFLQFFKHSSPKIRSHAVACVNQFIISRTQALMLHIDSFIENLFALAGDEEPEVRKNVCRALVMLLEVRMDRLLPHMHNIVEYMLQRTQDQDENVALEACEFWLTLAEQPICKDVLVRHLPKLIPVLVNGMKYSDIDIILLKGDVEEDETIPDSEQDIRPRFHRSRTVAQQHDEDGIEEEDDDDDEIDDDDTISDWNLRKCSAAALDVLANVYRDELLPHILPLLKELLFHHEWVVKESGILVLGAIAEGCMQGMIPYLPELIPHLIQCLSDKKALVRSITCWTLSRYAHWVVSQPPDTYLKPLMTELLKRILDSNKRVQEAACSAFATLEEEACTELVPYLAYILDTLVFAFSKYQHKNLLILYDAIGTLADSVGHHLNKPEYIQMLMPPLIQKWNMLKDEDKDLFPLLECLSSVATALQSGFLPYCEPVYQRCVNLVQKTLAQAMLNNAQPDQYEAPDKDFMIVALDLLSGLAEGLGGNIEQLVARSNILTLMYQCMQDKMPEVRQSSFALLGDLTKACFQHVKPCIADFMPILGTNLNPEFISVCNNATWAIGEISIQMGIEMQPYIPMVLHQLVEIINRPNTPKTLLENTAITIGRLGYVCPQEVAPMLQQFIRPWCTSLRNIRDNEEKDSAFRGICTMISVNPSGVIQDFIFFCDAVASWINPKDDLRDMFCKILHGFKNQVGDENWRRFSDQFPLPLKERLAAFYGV

effect of a mutation on the interaction | Variant
decreasing interaction | G274A

Variants of: B2
Conditions: with tnpo1_human TNPO1, Q92973

effect of a mutation on the interaction | Variant
decreasing interaction strength | P63A;Y64A
